The values below are quoted from earlier work in US20020094542A1, “Drugs and methods for treating cancer” (priority 1989, published 2002).

The conditions of the series: patients with kidney transplants.

As to “OKT3: monoclonal heterologous AB used clinically in patients with kidney transplants”, the side-effects of treatment entry is “low (flu-like)”.
